Test results reported in PMC9638925 (Nucleic Acids Research, 2022).

Biological target: T1, USP15 (275–981) (human, UniProt Q9Y4E8 275-981)
T1 sequence: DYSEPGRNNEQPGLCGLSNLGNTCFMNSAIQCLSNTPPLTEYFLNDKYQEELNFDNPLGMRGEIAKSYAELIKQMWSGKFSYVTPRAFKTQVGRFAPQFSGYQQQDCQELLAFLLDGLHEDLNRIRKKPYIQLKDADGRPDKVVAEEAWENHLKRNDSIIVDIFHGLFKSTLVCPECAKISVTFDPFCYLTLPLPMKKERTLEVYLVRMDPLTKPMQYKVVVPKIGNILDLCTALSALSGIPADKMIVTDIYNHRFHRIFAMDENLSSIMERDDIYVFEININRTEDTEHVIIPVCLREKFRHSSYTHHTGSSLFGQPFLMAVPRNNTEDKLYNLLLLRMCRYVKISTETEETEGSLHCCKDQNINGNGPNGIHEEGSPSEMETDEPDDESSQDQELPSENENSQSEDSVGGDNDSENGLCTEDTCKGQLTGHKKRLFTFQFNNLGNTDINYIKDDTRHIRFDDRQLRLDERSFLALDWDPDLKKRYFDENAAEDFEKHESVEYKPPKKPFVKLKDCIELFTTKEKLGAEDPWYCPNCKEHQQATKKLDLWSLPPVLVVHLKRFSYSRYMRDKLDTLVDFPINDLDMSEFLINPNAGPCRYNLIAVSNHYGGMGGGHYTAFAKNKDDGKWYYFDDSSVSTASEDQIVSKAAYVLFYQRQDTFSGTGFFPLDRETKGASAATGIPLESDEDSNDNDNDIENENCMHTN
Assay: pull-down

B1: GST–cGAS (161–522) (domain or fragment)
chain: GASKLRAVLEKLKLSRDDISTAAGMVKGVVDHLLLRLKCDSAFRGVGLLNTGSYYEHVKISAPNEFDVMFKLEVPRIQLEEYSNTRAYYFVKFKRNPKENPLSQFLEGEILSASKMLSKFRKIIKEEINDIKDTDVIMKRKRGGSPAVTLLISEKISVDITLALESKSSWPASTQEGLRIQNWLSAKVRKQLRLKPFYLVPKHAKEGNGFQEETWRLSFSHIEKEILNNHGKSKTCCENKEEKCCRKDCLKLMKYLLEQLKERFKDKKHLDKFSSYHVKTAFFHVCTQNPQDSQWDRKDLGLCFDNCVTYFLQCLRTEKLENYFIPEFNLFSSNLIDKRSKEFLTKQIEYERNNEFPVFDEF
**Q.** Does B1 bind?
**A.** binds
